This note sets out measurements from patent publication US20200024319A1 (Amgen, published 2020).

Where a chain is given by its changes, count along the chain named. Names and notes keep the numbering of the source.

T1: CD25 (IL-2Rα) on the surface of T cells (human, UniProt P01589 22-272)
T1 construct: whole, on cells; also called cell surface CD25
T1 sequence (looked up): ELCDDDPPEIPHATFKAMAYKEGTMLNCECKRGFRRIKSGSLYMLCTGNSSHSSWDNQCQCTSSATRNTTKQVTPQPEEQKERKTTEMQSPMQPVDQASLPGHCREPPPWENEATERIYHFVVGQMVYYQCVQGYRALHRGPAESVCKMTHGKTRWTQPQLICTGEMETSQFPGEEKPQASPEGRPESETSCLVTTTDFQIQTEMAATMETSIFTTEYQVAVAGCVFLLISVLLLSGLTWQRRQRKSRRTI

B1: 9B10 (antibody, V domains shown)
VH: QVQLVESGGGVVQPGRSLRLSCAASGFTFSSYAMHWVRQAPGKGLEWVAVIWYDGINKYYADSVKGRFTISRDNSKNTLYLQMNSLRAEDTAVYYCARGSYYDSSGYYFGEDFDYWGQGTLVTVSS
VL: DIVMTQTPLSSPVTLGQPASISCRSSHNLLHSDGNTYLSWLQQRPGQPPRLLIYEISNRFSGVPDRFSGSGAGTDFTLKISRVEAEDVGVYYCMQVTQFPTFGGGTKVEIK
B2: 9D6 (antibody, V domains shown)
VH: EVQLVQSGAEVKKPGESLKISCKGSGYRFTSYWIGWVRQMPGKGLEWMGIIHPGDSDTRYSPSFQGQVTISADKSISTAYLQWSSLKASDTAIYYCTRQGRSFYYYGMDVWGQGTTVTVSS
VL: DIVMTQTPLSLPVTPGEPASISCRSSQSLLDSDEGNTYLDWYLQKPGQSPQLLIYTLSYRASGVPDRFSGTGSDTDFTLKISRVEAEDVGVYYCMQRIEFPLTFGGGTKVEIK
B3: 26C12 (antibody, V domains shown)
VH: EVQLVQSGAEVKKPGESLKISCKGSGYRFTSYWIGWVRQMPGKGLEWMGIIFPGDSDTRYSPSFQGQVTISADKSITTAYLQWSSLKASDTAIYYCARHGHGSSSGRTYYYGLDVWGQGTTVTVSS
VL: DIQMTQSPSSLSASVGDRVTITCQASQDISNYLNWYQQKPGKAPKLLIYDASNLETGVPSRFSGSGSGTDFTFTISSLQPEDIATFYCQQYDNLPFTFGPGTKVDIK
B4: 18F3 (antibody, V domains shown)
VH: QVQLQESGPGLVKPSQTLSLTCTVSGGSISSGGYYWSWIRQHPGKGLEWIGYIYYSGSTDYNPSLKSRGIISGDTSKNQFSLKLNSVTAADTAVYYCAREGRFGELGSYYFDYWGQGTLVTVSS
VL: SYELTQPPSVSVSPGQTARIACSGDALPRKFAYWYQQKSGQAPVLVISEDSRRPSGIPERFSGSSSGTMATLTISGAQVEDEADYYCFSTDSSANHRVFGGGTKLTVL
B5: 2H11 (antibody, V domains shown)
VH: EVQLVQSGAEVKKPGESLKISCKGSGYNFTTYWIGWVRQMPGKGLEWMGIIYPGDSDTRYSPSFQGQVTISADKSINTAYLQWSSLKASDTAIYYCARDTGYFDYWGQGTLVTVSS
VL: B4 VL with A21T, S48Y, S51R, R52K, F88Y, S92R, A94G, N95D, R97V
B6: 14D7 (antibody, V domains shown)
VH: QVQLQESGPGLVKPSQTLSLTCTVSGGSISSGGYYWNWIRQHPGKGLEWIGYIYYSGNTHYNPSLKSRVTISVDTSKNQFSLKLSSVIAADTAVYYCARDWGRDAFDIWGQGTMVTVSS
VL: DIQMTQSPSSLSASVGDRVTITCRASQTISSYLNWYQQKPGKAPKVLIYAASSFQSGVPSRFSGSGSGTDFTLTISSLQPEDFATYYCQQSHYIPRTFGQGTKVEIK
B7: 14G7 (antibody, V domains shown)
VH: EVQLVQSGAEVKKPGESLKISCKGSGYSFTDYWIGWVRQMPGKGLEWMGIIYPYDSDTRYSPSFQGQVTLSADKSISTAYLRWSSLKASDTAMYYCARHRGGRSYYYGMDVWGQGTTVTVSS
VL: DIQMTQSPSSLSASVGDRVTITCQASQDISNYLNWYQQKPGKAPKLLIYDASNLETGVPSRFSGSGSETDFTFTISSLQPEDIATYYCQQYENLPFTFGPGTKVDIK
B8: 26H7 (antibody, V domains shown)
VH: EVQLVQSGAEVKKPGESLKISCKGSGYRFTNYWIGWVRQMPGKGLEWMGIIYPGDSDTKYSPSFQGQVTISADKSISTAYLQWSSLKASDTAMYYCARHGGYSGRSYYYGMDVWGQGTAVTVSS
VL: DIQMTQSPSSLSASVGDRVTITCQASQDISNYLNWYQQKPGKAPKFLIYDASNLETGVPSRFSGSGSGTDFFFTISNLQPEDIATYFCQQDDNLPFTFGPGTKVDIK
B9: 2C3 (antibody, V domains shown)
VH: EVQLVQSGAEVKKPGESLKISCKGSGYRFTSYWIGWVRQMPGKGLEWMGIIYPGDSDTRYSPSFQGQVTISADKSISAAYLQWSSLKASDTAMYYCARQQVAGMLDYWGQGTLVTVSS
VL: EIVLTQSPGTLSLSPGERATLSCRASQSFSSSYLVWYQQKPGQAPRLLIYGASSRATGIPDRFGGSGSGTDFTLTISRLEPEDFAVYYCQQYGSSPLTFGGGTKVEIK
B10: haD5 fused to the amino terminus of Fc, separated by a GGGGS linker (Fc fusion)
chain: APTSSSTKKTQLQLQNLLLDLQMILNGISNHKNPRLARMLTFKFYMPEKATELKHLQCLEEELKPLEEALRLAPSKNFHLRPRDLISDINVIVLELKGSETTFMCEYADETATIVEFLNRWITFSQSIISTLTGGGGS
notes: IL-2 mutein N-terminal of the Fc; dimer by the Fc; also called haD5 Fc fusion; not shown: IgG1 Fc with an effector function mutation (A327Q, L234A+L235A or N297G)
B11: HaMut1D (V69A, Q74P, N88D, C125A) (ligand)
chain: APTSSSTKKTQLQLEHLLLDLQMILNGINNYKNPKLTRMLTFKFYMPKKATELKHLQCLEEELKPLEEALNLAPSKNFHLRPRDLISDINVIVLELKGSETTFMCEYADETATIVEFLNRWITFAQSIISTLT
notes: not shown: C-terminal FLAG and poly-His tag
B12: HaMut3D (K35R, V69A, Q74P, N88D, C125A) (ligand)
chain: B11 chain with K35R
notes: human IL-2 mutein; not shown: C-terminal FLAG and poly-His tag
B13: HaMut2D (N30S, V69A, Q74P, N88D, C125A) (ligand)
chain: B11 chain with N30S
notes: as for B12
B14: HaMut6D (E68D, V69A, Q74P, N88D, C125A) (ligand)
chain: B11 chain with E68D
notes: as for B12
B15: HaMut7D (N71R, V69A, Q74P, N88D, C125A) (ligand)
chain: B11 chain with N71R
notes: as for B12
B16: HaMut4D (T37A, V69A, Q74P, N88D, C125A) (ligand)
chain: B11 chain with T37A
notes: as for B12
B17: HaMut8D (K35R, K48E, E68D, N88D, C125A) (ligand)
chain: B11 chain with K35R, K48E, E68D, A69V, P74Q
notes: as for B12
B18: HaMut5D (K48E, V69A, Q74P, N88D, C125A) (ligand)
chain: B11 chain with K48E
notes: as for B12

The first experiment deals with T2, wild-type human IL-2 (human, UniProt P60568 21-153).
T2 construct: also called hIL-2
Nature of the experiment: BIACORE.
Regarding B1, the Kd is around 0.11 nM.

The molecule B2 returned a dissociation constant (Kd) of around 0.041 nM.

Molecule B3 showed a Kd of around 0.27 nM.

Regarding B4, the dissociation constant (Kd) is around 0.05 nM.

B5 came in with a Kd of around 0.03 nM.

B6 registered a Kd of around 0.3 nM.

On to B7, for which the dissociation constant (Kd) is around 0.28 nM.

In turn, B8 showed a Kd of around 0.0013 nM.

In a further experiment the target is T3, cynomolgus monkey IL-2 (cynomolgus monkey, UniProt Q29615 21-154).
T3 construct: also called cyno IL-2
Nature of the experiment: BIACORE.
With B1, the Kd was around 0.16 nM.

Regarding B2, the Kd was around 0.016 nM.

For B3, the Kd is around 0.13 nM.

In turn, B9 came in with a dissociation constant (Kd) of around 0.0012 nM.

Molecule B4 showed a Kd of around 0.05 nM.

For B5, the Kd was around 0.008 nM.

B6: the dissociation constant Kd is around 0.14 nM.

Take B7: the dissociation constant Kd was around 0.13 nM.

B8 yielded a Kd of around 0.31 nM.

The next experiment concerns the target T1, CD25 (IL-2Rα) on the surface of T cells. The experiment in a line: binding to cell surface CD25 (method not described).
Regarding B10, the binding result was “binds”.

For a further experiment the target is unchanged. Nature of the experiment: flow cytometry, binding to CD25 on the surface of activated T cells. For orientation: In flow cytometry, cells or beads pass a laser one at a time.
Consider B11, for which the Kd is around 2 nM.

As for B12, the binding result was “binds”.

With B13, the binding result is “binds”.

For the molecule B14, the binding result was “binds”.

Turning to B15, the Kd is around 0.2 nM.

As to B16, the binding result is reported as “binds”.

B17: the binding result was “binds”.

As for B18, the binding result is listed as “binds”.

A word on the Kd: it is the free concentration of one partner at which half of the binding sites on the other are occupied at equilibrium, for simple one-to-one binding.
